Test results taken from paper PMC12062136.

Target: mCherry^N-gp418^N chimeric protein

gp418^C-mCherry^C chimeric protein
concurrent in situ splicing in a four-strain E. coli co-culture: mCherry fluorescence (580 nm excitation-610 nm emission) of the purified protein mixture: 35000 a.u.
